The record followed here is patent publication US20170121416A1 (AbbVie / Abbott, published 2017).

Assay [1] addresses T1, human CD324 on cells (MCF7, BR22, NTX tumor cells, 293-hCD324) (human, UniProt P12830 155-882).
T1 sequence: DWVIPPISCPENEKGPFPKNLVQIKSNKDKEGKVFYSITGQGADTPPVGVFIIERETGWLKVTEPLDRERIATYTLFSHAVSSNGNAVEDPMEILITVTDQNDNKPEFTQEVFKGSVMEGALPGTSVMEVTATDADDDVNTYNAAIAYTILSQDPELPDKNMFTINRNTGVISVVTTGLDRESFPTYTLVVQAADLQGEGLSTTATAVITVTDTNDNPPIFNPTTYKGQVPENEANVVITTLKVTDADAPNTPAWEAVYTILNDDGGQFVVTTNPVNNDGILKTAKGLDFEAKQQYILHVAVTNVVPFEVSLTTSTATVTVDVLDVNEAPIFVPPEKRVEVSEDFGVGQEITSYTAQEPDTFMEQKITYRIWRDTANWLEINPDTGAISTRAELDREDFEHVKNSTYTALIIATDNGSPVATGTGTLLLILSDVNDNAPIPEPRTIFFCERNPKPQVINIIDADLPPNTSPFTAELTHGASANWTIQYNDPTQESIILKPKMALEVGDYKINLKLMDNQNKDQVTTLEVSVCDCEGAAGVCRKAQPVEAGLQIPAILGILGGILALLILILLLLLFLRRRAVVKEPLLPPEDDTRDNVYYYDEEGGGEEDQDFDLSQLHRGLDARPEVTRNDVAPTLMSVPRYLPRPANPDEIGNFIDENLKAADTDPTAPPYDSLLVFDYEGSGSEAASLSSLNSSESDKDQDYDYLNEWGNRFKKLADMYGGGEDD
The assay is described as follows: cell-based or functional assay.

In assay [2] the target is T1, human CD324 on cells (MCF7, BR22, NTX …). Description: cell-based or functional assay. The source holds these as a separate data set.
Assay [3] deals with T2, Nectin-4 on cells (MCF-7, SKBR3) (UniProt Q96NY8 32-510, limits assumed).
T2 sequence (looked up): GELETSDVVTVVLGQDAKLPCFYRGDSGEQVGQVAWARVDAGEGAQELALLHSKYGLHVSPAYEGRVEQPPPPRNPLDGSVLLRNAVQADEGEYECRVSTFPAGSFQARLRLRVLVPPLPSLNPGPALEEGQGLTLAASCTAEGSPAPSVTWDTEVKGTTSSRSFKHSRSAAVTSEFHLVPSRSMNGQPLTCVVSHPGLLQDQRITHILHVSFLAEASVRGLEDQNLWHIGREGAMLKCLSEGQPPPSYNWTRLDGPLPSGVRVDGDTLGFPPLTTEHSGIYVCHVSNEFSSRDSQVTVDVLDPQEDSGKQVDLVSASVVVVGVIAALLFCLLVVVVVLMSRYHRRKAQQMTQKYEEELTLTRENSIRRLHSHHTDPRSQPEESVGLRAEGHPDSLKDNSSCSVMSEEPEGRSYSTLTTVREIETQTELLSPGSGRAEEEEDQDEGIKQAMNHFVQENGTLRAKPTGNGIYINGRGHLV
The assay is described as follows: cell-based or functional assay.

The target of assay [4] is T1, human CD324 on cells (MCF7, BR22, NTX …). The assay is described as follows: cell-based or functional assay. This is another data set of the same source.
In assay [5] the target is T3, human CD324-His recombinant protein (Sino Biological, Inc.) (human, UniProt P12830 155-709).
T3 construct: bought soluble protein; The antigen of the Biacore experiment is only called human CD324 antigen; also called hCD324-His; human CD324 antigen; not shown: His tag
T3 sequence: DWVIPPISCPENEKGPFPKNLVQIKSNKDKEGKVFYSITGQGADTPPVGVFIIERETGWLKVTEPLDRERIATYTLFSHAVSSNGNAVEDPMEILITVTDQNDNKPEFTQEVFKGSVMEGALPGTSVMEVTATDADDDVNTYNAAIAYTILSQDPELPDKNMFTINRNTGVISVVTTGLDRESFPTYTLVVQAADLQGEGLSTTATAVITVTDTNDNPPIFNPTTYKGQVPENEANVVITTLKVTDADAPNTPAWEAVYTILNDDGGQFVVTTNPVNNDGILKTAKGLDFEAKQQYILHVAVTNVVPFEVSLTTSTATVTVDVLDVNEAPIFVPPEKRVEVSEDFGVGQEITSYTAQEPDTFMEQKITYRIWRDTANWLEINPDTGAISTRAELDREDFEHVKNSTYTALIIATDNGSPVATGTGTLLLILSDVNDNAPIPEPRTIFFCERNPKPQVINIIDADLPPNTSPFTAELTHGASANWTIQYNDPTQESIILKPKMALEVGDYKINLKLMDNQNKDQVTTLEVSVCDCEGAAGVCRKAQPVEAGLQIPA
Description: SPR (Biacore), similar experiments as for murine SC10.17; humanized antibody.

The target in assay [6] is T4, Nectin-4 protein (R&D Systems) (UniProt Q96NY8 32-349).
T4 construct: bought; coated on the plate of the bridging ELISA
T4 sequence (looked up): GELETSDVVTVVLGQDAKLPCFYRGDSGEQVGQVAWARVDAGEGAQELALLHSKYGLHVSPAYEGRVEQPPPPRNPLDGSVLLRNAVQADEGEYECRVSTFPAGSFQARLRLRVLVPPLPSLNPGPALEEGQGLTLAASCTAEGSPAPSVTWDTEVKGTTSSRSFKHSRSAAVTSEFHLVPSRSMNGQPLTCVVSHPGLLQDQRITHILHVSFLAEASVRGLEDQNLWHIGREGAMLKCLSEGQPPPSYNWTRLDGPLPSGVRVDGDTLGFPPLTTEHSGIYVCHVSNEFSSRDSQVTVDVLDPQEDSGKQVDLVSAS
Description: bridging ELISA: Nectin-4 coated, detection with biotinylated CD324 W2A and streptavidin-HRP.

B1: hSC10.17 (antibody, V domains shown)
VH: EVQLVESGGGLVQPGGSLRLSCAASGFTFSSYGMHWVRQAPGKGLEWVAYITTRSSTIYYADSVKGRFTISRDNAKNSLYLQMNSLRAEDTAVYYCTREPLTGYYAMDYWGQGTSVTVSS
VL: DVVMTQSPLSLPVTLGQPASISCRSSQSIVHSDGNTYLEWYQQRPGQSPRRLIYKVSNRFSGVPDRFSGSGSGTDFTLKISRVEAEDVGVYYCFQGSHAPWTFGGGTKVEIK
notes: humanized (CDR-grafted) SC10.17; also called humanized SC10.17 mAb; hSC10.17 IgG
In the case of B1, the “EC50 of killing of MCF7 cells, anti-human Fab-saporin assay” value in assay [1] came out at 4.4 pM. For the same molecule, in assay [2], the “IC50 on 293-hCD324 (pM), in vitro killing with anti-human IgG Fab-saporin” value amounted to 0.27 pM and the “IC50 on MCF-7 (pM), in vitro killing with anti-human IgG Fab-saporin” value came out at 3.1 pM. Moreover, the “IC50 on SKBR3 (pM), in vitro killing with anti-human IgG Fab-saporin” value in assay [3] is greater than 1000 pM. The “EC50 (MCF7, Fab-saporin killing)” value in assay [4] turned out to be 4.44 pM. Besides, the Kd in assay [5] worked out at 3800 pM. Also, the binding result in assay [6] is given as “no binding”.

The Kd is the free concentration of one partner at which half of the binding sites on the other are occupied at equilibrium, for simple one-to-one binding.
